Experimental findings from US20210324028A1 (Pfizer, published 2021) are described below.

Test [1] deals with T1, human IL-15Rα (human, UniProt Q13261 31-205, limits assumed).
T1 construct: also called hIL-15Rα; IL-15 receptor alpha
Briefly: SPR, steady state. A general note: SPR reads the build-up and loss of mass on a sensor chip optically.

Test [2] concerns the target T2, human IL-2Rβ (human, UniProt P14784 27-240, limits assumed).
T2 construct: also called hIL-2Rβ; IL-2 receptor beta
T2 sequence (looked up): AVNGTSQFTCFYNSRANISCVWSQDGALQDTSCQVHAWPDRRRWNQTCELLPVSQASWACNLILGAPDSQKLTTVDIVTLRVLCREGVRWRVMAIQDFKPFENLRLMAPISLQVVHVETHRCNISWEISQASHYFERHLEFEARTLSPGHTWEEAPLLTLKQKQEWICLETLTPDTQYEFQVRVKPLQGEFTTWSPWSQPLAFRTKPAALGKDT
Kind of test: SPR, steady state.

T1 sequence (Q13261 31-205 limits assumed): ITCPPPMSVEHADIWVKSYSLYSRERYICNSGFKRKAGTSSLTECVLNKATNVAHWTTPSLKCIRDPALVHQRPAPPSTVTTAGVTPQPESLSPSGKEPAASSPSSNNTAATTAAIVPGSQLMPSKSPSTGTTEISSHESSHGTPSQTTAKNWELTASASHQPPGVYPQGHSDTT

B1: hIL-15 V49R/N1D (ligand)
chain: DWVNVISDLKKIEDLIQSMHIDATLYTESDVHPSCKVTAMKCFLLELQRISLESGDASIHDTVENLIILANNSLSSNGNVTESGCKECEELEEKNIKEFLQSFVHIVQMFINTGGGGSGHHHHHHHHGGGLNDIFEAQKIEWHE
Take B1: the results for the Kd in test [1] and in test [2] were 105 nM and 311 nM, respectively.

B2: hIL-15 V49R/Q108A (ligand)
chain: NWVNVISDLKKIEDLIQSMHIDATLYTESDVHPSCKVTAMKCFLLELQRISLESGDASIHDTVENLIILANNSLSSNGNVTESGCKECEELEEKNIKEFLQSFVHIVAMFINTGGGGSGHHHHHHHHGGGLNDIFEAQKIEWHE
Take B2: the Kd (in general, a measure of binding affinity in units of concentration) in test [1] is 161 nM; in test [2], 462 nM.

B3: hIL-15 V49R/N4D (ligand)
chain: NWVDVISDLKKIEDLIQSMHIDATLYTESDVHPSCKVTAMKCFLLELQRISLESGDASIHDTVENLIILANNSLSSNGNVTESGCKECEELEEKNIKEFLQSFVHIVQMFINTGGGGSGHHHHHHHHGGGLNDIFEAQKIEWHE
For the molecule B3, the Kd in test [1] amounted to 103 nM; in test [2], 365 nM.

B4: hIL-15 V49R/N1E (ligand)
chain: EWVNVISDLKKIEDLIQSMHIDATLYTESDVHPSCKVTAMKCFLLELQRISLESGDASIHDTVENLIILANNSLSSNGNVTESGCKECEELEEKNIKEFLQSFVHIVQMFINTGGGGSGHHHHHHHHGGGLNDIFEAQKIEWHE
With B4, the Kd in test [1] came to 171 nM; in test [2], 340 nM.

B5: hIL-15 V49R/N4M (ligand)
chain: NWVMVISDLKKIEDLIQSMHIDATLYTESDVHPSCKVTAMKCFLLELQRISLESGDASIHDTVENLIILANNSLSSNGNVTESGCKECEELEEKNIKEFLQSFVHIVQMFINTGGGGSGHHHHHHHHGGGLNDIFEAQKIEWHE
As for B5, the Kd in test [1] was found to be 88.1 nM; in test [2] it was 233 nM.

B6: hIL-15 V49R/N1G (ligand)
chain: GWVNVISDLKKIEDLIQSMHIDATLYTESDVHPSCKVTAMKCFLLELQRISLESGDASIHDTVENLIILANNSLSSNGNVTESGCKECEELEEKNIKEFLQSFVHIVQMFINTGGGGSGHHHHHHHHGGGLNDIFEAQKIEWHE
For B6, the Kd is 160 nM in test [1] and above 500 nM in test [2].

B7: hIL-15 V49R/N1H (ligand)
chain: HWVNVISDLKKIEDLIQSMHIDATLYTESDVHPSCKVTAMKCFLLELQRISLESGDASIHDTVENLIILANNSLSSNGNVTESGCKECEELEEKNIKEFLQSFVHIVQMFINTGGGGSGHHHHHHHHGGGLNDIFEAQKIEWHE
Turning to B7, the Kd in test [1] worked out at 151 nM; in test [2], 235 nM.

B8: hIL-15 V49R/N4L (ligand)
chain: NWVLVISDLKKIEDLIQSMHIDATLYTESDVHPSCKVTAMKCFLLELQRISLESGDASIHDTVENLIILANNSLSSNGNVTESGCKECEELEEKNIKEFLQSFVHIVQMFINTGGGGSGHHHHHHHHGGGLNDIFEAQKIEWHE
As to B8, the figures for the Kd in test [1] and in test [2] were 98.6 nM and 429 nM, respectively.

B9: hIL-15 V49R/N4W (ligand)
chain: NWVWVISDLKKIEDLIQSMHIDATLYTESDVHPSCKVTAMKCFLLELQRISLESGDASIHDTVENLIILANNSLSSNGNVTESGCKECEELEEKNIKEFLQSFVHIVQMFINTGGGGSGHHHHHHHHGGGLNDIFEAQKIEWHE
For B9, the Kd in test [1] was found to be 143 nM; in test [2] it was 438 nM.

B10: hIL-15 V49R/N1S (ligand)
chain: SWVNVISDLKKIEDLIQSMHIDATLYTESDVHPSCKVTAMKCFLLELQRISLESGDASIHDTVENLIILANNSLSSNGNVTESGCKECEELEEKNIKEFLQSFVHIVQMFINTGGGGSGHHHHHHHHGGGLNDIFEAQKIEWHE
With B10, the Kd was 140 nM in test [1] and 194 nM in test [2].

B11: hIL-15 V49R/N65D (ligand)
chain: NWVNVISDLKKIEDLIQSMHIDATLYTESDVHPSCKVTAMKCFLLELQRISLESGDASIHDTVEDLIILANNSLSSNGNVTESGCKECEELEEKNIKEFLQSFVHIVQMFINTGGGGSGHHHHHHHHGGGLNDIFEAQKIEWHE
B11: the Kd in test [1] was 121 nM; in test [2] it was above 500 nM.

B12: hIL-15 V49R/N4Q (ligand)
chain: NWVQVISDLKKIEDLIQSMHIDATLYTESDVHPSCKVTAMKCFLLELQRISLESGDASIHDTVENLIILANNSLSSNGNVTESGCKECEELEEKNIKEFLQSFVHIVQMFINTGGGGSGHHHHHHHHGGGLNDIFEAQKIEWHE
On to B12, for which the results for the Kd in test [1] and in test [2] were 59.5 nM and above 500 nM, respectively.

B13: hIL-15 V49R/N72A (ligand)
chain: NWVNVISDLKKIEDLIQSMHIDATLYTESDVHPSCKVTAMKCFLLELQRISLESGDASIHDTVENLIILANASLSSNGNVTESGCKECEELEEKNIKEFLQSFVHIVQMFINTGGGGSGHHHHHHHHGGGLNDIFEAQKIEWHE
Take B13: the Kd worked out at 117 nM in test [1] and 148 nM in test [2].

B14: hIL-15 V49R/N4E (ligand)
chain: NWVEVISDLKKIEDLIQSMHIDATLYTESDVHPSCKVTAMKCFLLELQRISLESGDASIHDTVENLIILANNSLSSNGNVTESGCKECEELEEKNIKEFLQSFVHIVQMFINTGGGGSGHHHHHHHHGGGLNDIFEAQKIEWHE
In the case of B14, the Kd is 79.8 nM in test [1] and 311 nM in test [2].

B15: hIL-15 V49R/N1K (ligand)
chain: KWVNVISDLKKIEDLIQSMHIDATLYTESDVHPSCKVTAMKCFLLELQRISLESGDASIHDTVENLIILANNSLSSNGNVTESGCKECEELEEKNIKEFLQSFVHIVQMFINTGGGGSGHHHHHHHHGGGLNDIFEAQKIEWHE
Turning to B15, the Kd in test [1] was 264 nM; in test [2], above 500 nM.

B16: hIL-15 V49R/N72S (ligand)
chain: NWVNVISDLKKIEDLIQSMHIDATLYTESDVHPSCKVTAMKCFLLELQRISLESGDASIHDTVENLIILANSSLSSNGNVTESGCKECEELEEKNIKEFLQSFVHIVQMFINTGGGGSGHHHHHHHHGGGLNDIFEAQKIEWHE
For the molecule B16, the Kd worked out at 118 nM in test [1] and 182 nM in test [2].

B17: hIL-15 V49R/N4A (ligand)
chain: NWVAVISDLKKIEDLIQSMHIDATLYTESDVHPSCKVTAMKCFLLELQRISLESGDASIHDTVENLIILANNSLSSNGNVTESGCKECEELEEKNIKEFLQSFVHIVQMFINTGGGGSGHHHHHHHHGGGLNDIFEAQKIEWHE
For the molecule B17, the values for the Kd in test [1] and in test [2] were 98 nM and above 500 nM, respectively.

B18: hIL-15 V49R/N4H (ligand)
chain: NWVHVISDLKKIEDLIQSMHIDATLYTESDVHPSCKVTAMKCFLLELQRISLESGDASIHDTVENLIILANNSLSSNGNVTESGCKECEELEEKNIKEFLQSFVHIVQMFINTGGGGSGHHHHHHHHGGGLNDIFEAQKIEWHE
With B18, the Kd in test [1] was found to be 81.5 nM; in test [2], 96.4 nM.

B19: hIL-15 V49R/N1T (ligand)
chain: TWVNVISDLKKIEDLIQSMHIDATLYTESDVHPSCKVTAMKCFLLELQRISLESGDASIHDTVENLIILANNSLSSNGNVTESGCKECEELEEKNIKEFLQSFVHIVQMFINTGGGGSGHHHHHHHHGGGLNDIFEAQKIEWHE
As to B19, the values for the Kd in test [1] and in test [2] were 104 nM and 249 nM, respectively.

B20: hIL-15 V49R/N72K (ligand)
chain: NWVNVISDLKKIEDLIQSMHIDATLYTESDVHPSCKVTAMKCFLLELQRISLESGDASIHDTVENLIILANKSLSSNGNVTESGCKECEELEEKNIKEFLQSFVHIVQMFINTGGGGSGHHHHHHHHGGGLNDIFEAQKIEWHE
As to B20, the Kd in test [1] was 101 nM; in test [2] it was above 500 nM.

B21: hIL-15 V49R/N1Q (ligand)
chain: QWVNVISDLKKIEDLIQSMHIDATLYTESDVHPSCKVTAMKCFLLELQRISLESGDASIHDTVENLIILANNSLSSNGNVTESGCKECEELEEKNIKEFLQSFVHIVQMFINTGGGGSGHHHHHHHHGGGLNDIFEAQKIEWHE
In the case of B21, the Kd was 115 nM in test [1] and above 500 nM in test [2].

B22: hIL-15 V49R/N65K (ligand)
chain: NWVNVISDLKKIEDLIQSMHIDATLYTESDVHPSCKVTAMKCFLLELQRISLESGDASIHDTVEKLIILANNSLSSNGNVTESGCKECEELEEKNIKEFLQSFVHIVQMFINTGGGGSGHHHHHHHHGGGLNDIFEAQKIEWHE
Take B22: the Kd in test [1] is 201 nM; in test [2], 193 nM.

B23: hIL-15 V49R/N4G (ligand)
chain: NWVGVISDLKKIEDLIQSMHIDATLYTESDVHPSCKVTAMKCFLLELQRISLESGDASIHDTVENLIILANNSLSSNGNVTESGCKECEELEEKNIKEFLQSFVHIVQMFINTGGGGSGHHHHHHHHGGGLNDIFEAQKIEWHE
Take B23: the Kd is 105 nM in test [1] and above 500 nM in test [2].

B24: hIL-15 V49R/Q108D (ligand)
chain: NWVNVISDLKKIEDLIQSMHIDATLYTESDVHPSCKVTAMKCFLLELQRISLESGDASIHDTVENLIILANNSLSSNGNVTESGCKECEELEEKNIKEFLQSFVHIVDMFINTGGGGSGHHHHHHHHGGGLNDIFEAQKIEWHE
On to B24, for which the Kd in test [1] worked out at 125 nM; in test [2], 215 nM.

B25: hIL-15 V49R/N72D (ligand)
chain: NWVNVISDLKKIEDLIQSMHIDATLYTESDVHPSCKVTAMKCFLLELQRISLESGDASIHDTVENLIILANDSLSSNGNVTESGCKECEELEEKNIKEFLQSFVHIVQMFINTGGGGSGHHHHHHHHGGGLNDIFEAQKIEWHE
On to B25, for which the Kd in test [1] is 105 nM; in test [2], 101 nM.
